Measured values from patent publication US20210155689A1 (SHANGHAI PHARMAEXPLORER, published 2021).
Positions count from the first letter of the chain named.

T1: monkey LAG-3 (full length, on the cell surface) (monkey, UniProt P18627 24-525 (human entry))
T1 construct: also called HEK293-cLAG-3; monkey LAG-3 protein on the cell surface
T1 chain: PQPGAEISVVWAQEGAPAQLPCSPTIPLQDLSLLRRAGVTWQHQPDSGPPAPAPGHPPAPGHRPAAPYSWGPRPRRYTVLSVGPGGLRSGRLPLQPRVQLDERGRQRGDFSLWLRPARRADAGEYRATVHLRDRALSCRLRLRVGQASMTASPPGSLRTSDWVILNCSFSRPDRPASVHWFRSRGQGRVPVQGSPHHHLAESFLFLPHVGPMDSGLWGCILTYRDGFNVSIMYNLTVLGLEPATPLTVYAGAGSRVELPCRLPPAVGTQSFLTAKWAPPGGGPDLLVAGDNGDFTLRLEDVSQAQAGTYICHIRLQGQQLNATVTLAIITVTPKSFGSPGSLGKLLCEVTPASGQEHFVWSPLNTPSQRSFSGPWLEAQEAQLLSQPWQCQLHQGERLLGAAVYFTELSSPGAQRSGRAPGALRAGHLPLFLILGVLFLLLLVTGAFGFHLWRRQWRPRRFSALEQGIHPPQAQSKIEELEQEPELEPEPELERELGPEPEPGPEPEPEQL

T2: human LAG-3 (full length, on the cell surface) (human, UniProt P18627 23-525)
T2 construct: Full-length human LAG-3 expressed on cells; also called HEK293-hLAG-3; HEK293 cells transfected with LAG-3 gene
T2 sequence: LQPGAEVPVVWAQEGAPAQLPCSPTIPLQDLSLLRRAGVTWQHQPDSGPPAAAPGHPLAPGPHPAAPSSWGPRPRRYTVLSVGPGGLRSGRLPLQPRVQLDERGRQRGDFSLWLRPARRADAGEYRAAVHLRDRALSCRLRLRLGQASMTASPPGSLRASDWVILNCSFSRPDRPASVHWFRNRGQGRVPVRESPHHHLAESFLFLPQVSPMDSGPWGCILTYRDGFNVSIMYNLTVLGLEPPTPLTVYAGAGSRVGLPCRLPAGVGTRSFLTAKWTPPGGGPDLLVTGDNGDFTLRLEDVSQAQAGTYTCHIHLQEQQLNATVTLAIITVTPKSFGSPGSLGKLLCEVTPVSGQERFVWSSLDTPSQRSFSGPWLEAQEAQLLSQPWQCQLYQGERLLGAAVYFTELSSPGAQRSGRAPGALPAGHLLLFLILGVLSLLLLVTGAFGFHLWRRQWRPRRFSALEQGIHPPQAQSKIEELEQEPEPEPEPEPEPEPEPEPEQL

T3: hFc tagged monkey LAG-3 protein (cLAG-3-hFc protein) (monkey; human)
T3 construct: Made in HEK293 cells; also called monkey LAG-3 extracellular domain protein; not shown: human IgG Fc fragment (hFc) of the pCpC vector
T3 chain: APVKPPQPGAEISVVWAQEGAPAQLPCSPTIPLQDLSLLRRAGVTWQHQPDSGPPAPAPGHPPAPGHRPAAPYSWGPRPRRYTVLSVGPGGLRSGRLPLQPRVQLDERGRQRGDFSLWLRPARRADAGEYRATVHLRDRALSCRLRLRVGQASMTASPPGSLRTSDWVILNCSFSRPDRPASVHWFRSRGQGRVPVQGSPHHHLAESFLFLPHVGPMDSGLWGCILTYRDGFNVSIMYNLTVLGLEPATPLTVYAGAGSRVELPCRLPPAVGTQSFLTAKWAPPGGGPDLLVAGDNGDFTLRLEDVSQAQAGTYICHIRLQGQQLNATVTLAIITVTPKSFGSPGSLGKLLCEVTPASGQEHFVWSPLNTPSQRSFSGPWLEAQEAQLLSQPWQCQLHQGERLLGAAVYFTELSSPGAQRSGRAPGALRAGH

B1: 105F1E10 (mouse antibody purified from hybridoma) (antibody, V domains shown)
VH: EVQLQQSGPELVKPGASVKMSCRASGYTFTDFKMHWMKQSHGKSLEWIGYIAPNNGGTAYNQKFRGKATLTVNESSNTAYMELRSLTSEDSAVYYCVDWDDVDYWGQGTTLTVSS
VL: DIKMTQSPSSMYASLGERVTITCKASQDINSYLSWFQQKSGKSPKTLIYRANRLVDGVPSRFSGSGSGQDYSLTISSLEYEDMGIYYCLQYVEFPLTFGAGTKLELK
notes: also called mAb009-105F1E10
B2: 405B8H3 (LAG-3 mouse-human chimeric antibody) (antibody, V domains shown)
VH: QVQLQQSGAELVRPGASVTLSCKASGYTFTDYEMHWVKQTPVHGLEWIGATDPETGNSAYNQKFKGKAIMTADKSSSTAYMELRSLTSEDSAVYYCISTGWNDWGQGTSLTVSS
VL: B1 VL with S40P, N52D, V55L, E81G, V92D, L96Y, A100G, L106I
notes: also called mouse-human chimeric antibody 405B8H3
B3: 105F1E10 (LAG-3 mouse-human chimeric antibody) (antibody, V domains shown)
VH: B1 VH
VL: B1 VL
B4: 409D4E10 (LAG-3 mouse-human chimeric antibody) (antibody, V domains shown)
VH: B2 VH with Y27N, G56D, S58T, M70L, A72T, S98T, T99S
VL: B1 VL with S40P, V55L, V92N, L96Y, A100G, L106I
B5: 409B11E12 (LAG-3 mouse-human chimeric antibody) (antibody, V domains shown)
VH: B2 VH with P41T, G56S, N57Y, M70L, S98A
VL: B1 VL with I2L, S40P, V55L, V92D, L96Y, A100G, L106I
B6: 556F6B8 (mouse antibody purified from hybridoma) (antibody, V domains shown)
VH: RVQLKQSGPGLVQPSQSLSITCTVSGFSLIKYGVHWVRQSPGEGLEWLGVIWRGGITDYNAAFMSRLSITKDNSKSQVFFKMNSLQADDTAIYYCAKWDGPLAMDYWGQGTSVTVSS
VL: DIVMTQSHKFLSTSVGDRVSITCKASQDVGTTVAWYQQKPGQSPKLLIYWASTRHTGVPDRFTGSGSGTDFTLTISNVQSEDLADYFCQQYSSYPYTFGGGTKLEIK
notes: also called mAb123-556F6B8
B7: 556F6B8 (LAG-3 mouse-human chimeric antibody) (antibody, V domains shown)
VH: B6 VH
VL: B6 VL
notes: also called 556F8B8

Assays:
[1] = target: T1, monkey LAG-3 (full length, on the cell …); test: FACS, HEK293-cLAG-3; 0.013 nM
From the text: (§1) The pIRES plasmid with the monkey-derived full-length gene was transfected into the HEK293 cell line to construct a HEK293 stable cell line containing monkey LAG-3 (herein referred to as HEK293-cLAG-3 stable cell line). The HEK293-hLAG-3 stable cell line and HEK293-cLAG-3 stable cell line were expanded in a T-75 cell culture flask to a 90% confluence. The medium was aspirated, and the cells were washed with HBSS (Hanks' Balanced Salt Solution) 1-2 times, then treated with a enzyme-free cell dissociation fluid (Versene solution: Life technology) and the cells were collected. The cells were washed with HBSS buffer for 1-2 times. After counted, the cells were diluted with HBSS to 1-2×10⁶ cells per ml, added with 1% goat serum blocking solution, incubated on ice for 20-30 minutes, and then washed with HBSS for 2 times by centrifugation. The collected cells were suspended in the FACS buffer (HBSS+1% BSA) to 2×10⁶ cells/ml, added as 100 microliters per well to a 96-well FACS reaction plate, added with 100 microliters per well of the antibody sample to be tested, incubated on ice for 1-2 hours. The plate was washed twice with the FACS buffer by centrifugation, added with 100 microliters of fluorescent (Alexa 488)-labeled secondary antibodies per well, and incubated on ice for 0.5-1.0 hours. The plate was washed 2-3 times with FACS buffer by centrifugation, added with 100 μl fixative solution (4% Paraformaldehyde) per well to suspend the cells. 5-10 minutes later, it was washed 1-2 times with FACS buffer by centrifugation. The cells were suspended with 100 microliters of FACS buffer, FACS (FACSCalibur, BD) was used for detection and the results were analyzed.

[2] = target: T2, human LAG-3 (full length, on the cell …); test: FACS, HEK293-hLAG-3; 200.000 nM
From the text: as §1

[3] = target: T3, hFc tagged monkey LAG-3 protein …; test: ELISA, cLAG-3-hFc coated; 6.6667 nM
Method: The plate was sealed with plastic film and incubated overnight at 4° C. The plate was washed 2 times with the plate washing solution (PBS+0.01% Tween20) on the next day, and added with the blocking solution (PBS+0.01% Tween20+1% BSA) and blocked at room temperature for 1-2 hours. The blocking solution was poured out, and the plate was added with 50-100 μl of the antibody sample to be tested to each well, incubated at 37° C. for 1-2 hours, and washed 2-3 times with a plate washing solution (PBS+0.01% Tween20). HRP (horseradish peroxidase) labeled secondary antibody was added, and the plate was incubated at 37° C. for 1-2 hours, and washed 2-3 times with a plate washing solution (PBS+0.01% Tween20). 100 μl of TMB substrate was added to each well. After incubated at room temperature for 15-30 minutes, the plate was added with 100 μl of stop solution (1.0N HCl) to each well.

Binder	Mean fluorescence intensity [1]	Mean fluorescence intensity [2]	OD450 [3]
B1	4.1 MFI	330 MFI	
B2			3.55 OD450
B3			3.53 OD450
B4			3.79 OD450
B5			3.47 OD450
B6	3.9 MFI	83.7 MFI	
B7			3.78 OD450
